Data reported in publication PMC9728370, “Multiple Tolerances and Dye Decolorization Ability of a Novel Laccase Identified from Staphylococcus Haemolyticus” (Journal of Microbiology and Biotechnology, 2020).

Substrate: CCn1c(=NN=c2sc3cc(S(=O)(=O)O)ccc3n2CC)sc2cc(S(=O)(=O)O)ccc21
Test: purified protein
Type: biochemical, Staphylococcus haemolyticus
Settings: 100 mM sodium acetate pH 4.5, 30°C, ABTS 50-1,000 μM, 5.21 mg/l enzyme

B1: Mco (Staphylococcus haemolyticus) (protein)
chain: MYNKVFTILIIIFSIIIIASNDTFAESKNDMMNMKEDKKNTMDMTNMKHHDERKKLNSSQGKNEIIFPEVAESKKDNNGYKNYTLKAQKGKTEFYKNNFSNTLGYNGNLLGPTLKLKKGDKVKIKLINNLDENTTFHWHGLEVNGKVDGGPSQVIKPGKEKTIKFEVNQDSATLWYHPHPSPNTAKQVYNGLSGLLYIEDSKKNNYPSNYGKNDLPIIIQDKTFVSKKLNYSKTKDEDGTQGDTVLVNGIVNPKLTAKEEKIRLRLLNGSNARDLNLKLSNNQSFEYIASDGGQLKNAKKLKEINLAPSERKEIVIDLSKMKGEKVSLVDNDKTVILPISNKEKSSNKSNTPKVSKKIKLEGMNDNVTINGNKFDPNRIDFTQKLNQKEVWEIENVKDKMGGMKHPFHIHGTQFKVLSVDGEKPPKDMRGKKDVISLEPGQKAKIEVVFKNTGTYMFHCHILEHEDNGMMGQIKVTN
notes: expressed in E. coli pG-KJE8/BL21
Km: 139.8 µM
kcat: 6.87 s⁻¹
